Data: patent publication US20250152746A1, “BASE EDITING OF ANGPTL3 AND METHODS OF USING SAME FOR TREATMENT OF DISEASE” (Verve Therapeutics, Inc., priority 2020, published 2025)
Changes are numbered by the printed parent chain. Where two headings read alike, the source gives them in different places. In the oligonucleotide strings, read from the 5' end, every base follows the letter of its sugar. An asterisk marks phosphorothioate; unmarked linkages are phosphodiester. Other units and linkages are bracketed, terminal groups are in braces. A string of capitals states the bases alone. m = 2'-O-methyl; r = 2'-OH (RNA)

B1: GA078: PCSK9 gRNA for ABE8.8 splice site editing, Human/Cyno (nucleic acid)
guide: AGCACCTACCTCGGGAGCTGGTTTTAGAGCTAGAAATAGCAAGTTAAAATAAGGCTAGTCCGTTATCAACTTGAAAAAGTGGCACCGAGTCGGTGCTTTT
modifications: listed as RNA; note = Description of Combined DNA/RNA Molecule: Synthetic oligonucleotide; modified_base 1: mod_base = OTHER; note = 2'-O-Methyl-adenosine phosphorothioate; modified_base
notes: PCSK9 gRNA for ABE8.8 splice site editing, Human/Cyno
B2: GA075: PCSK9 gRNA for ABE8.8 splice site editing, Human/Cyno (nucleic acid)
guide: TTGGAAAGACGGAGGCAGCCGTTTTAGAGCTAGAAATAGCAAGTTAAAATAAGGCTAGTCCGTTATCAACTTGAAAAAGTGGCACCGAGTCGGTGCTTTT
modifications: listed as RNA; modified_base 1: mod_base = OTHER; note = 2'-O-Methyl-uridine phosphorothioate; modified_base 2: mod_base = OTHER; modified_base
notes: as for B1
B3: GA391 (nucleic acid)
guide: mC*mC*rGrCrArCrCrUrUrGrGrCrGrCrArGrCrGrGmGrUrUrUrUrArGmAmGmCmUmArGmAmAmAmUmAmGmCmAmArGrUrUmArAmArAmUrAmAmGmGmCmUmArGrUmCmCrGrUrUrAmUmCrArAmCmUmUrGmAmAmAmAmAmGmUmGrGmCmAmCmCmGmAmGmUmCmGmGmUmGmCmU*mU*mU*mU
B4: GA083: PCSK9 gRNA for ABE8.8 splice site editing, Human/Cyno (nucleic acid)
guide: UAAGGCCCAAGGGGGCAAGCGTTTTAGAGCTAGAAATAGCAAGTTAAAATAAGGCTAGTCCGTTATCAACTTGAAAAAGTGGCACCGAGTCGGTGCTTTT
modifications: 2'-O-methyl at 1, 2, other sugars and backbone not given here; further chemistry not fully specified
notes: as for B1
B5: GA089: PCSK9 gRNA for ABE8.8 splice site editing, Human/Cyno (nucleic acid)
guide: CCCCAGGCTGCAGCTCCCACGTTTTAGAGCTAGAAATAGCAAGTTAAAATAAGGCTAGTCCGTTATCAACTTGAAAAAGTGGCACCGAGTCGGTGCTTTT
modifications: 2'-O-methyl at 1, 2, other sugars and backbone not given here; further chemistry not fully specified
notes: as for B1
B6: GA084: PCSK9 gRNA for ABE8.8 splice site editing, Human/Cyno (nucleic acid)
guide: CCTCTTCACCTGCTCCTGAGGTTTTAGAGCTAGAAATAGCAAGTTAAAATAAGGCTAGTCCGTTATCAACTTGAAAAAGTGGCACCGAGTCGGTGCTTTT
modifications: 2'-O-methyl at 1, 2, other sugars and backbone not given here; further chemistry not fully specified
notes: as for B1
B7: GA090: PCSK9 gRNA for ABE8.8 splice site editing, Human/Cyno (nucleic acid)
guide: B6 guide with C1G, T3A, C4G, T5G, C7G, T11G, G12T, C13G, T14G, A19C
modifications: listed as RNA; modified_base 1: mod_base = OTHER; note = 2'-O-Methyl-guanosine phosphorothioate; modified_base 2: mod_base = OTHER; note = 2'-O-Methyl-cytidine phosphorothioate; modified_b
notes: as for B1
B8: GA076: PCSK9 gRNA for ABE8.8 splice site editing, Human/Cyno (nucleic acid)
guide: GAAAGACGGAGGCAGCCTGGGTTTTAGAGCTAGAAATAGCAAGTTAAAATAAGGCTAGTCCGTTATCAACTTGAAAAAGTGGCACCGAGTCGGTGCTTTT
modifications: 2'-O-methyl at 1, 2, other sugars, backbone and T or U not given here; further chemistry not fully specified
notes: as for B1
B9: GA082: PCSK9 gRNA for ABE8.8 splice site editing, Human/Cyno (nucleic acid)
guide: CTTACCTGCCCCATGGGTGCGTTTTAGAGCTAGAAATAGCAAGTTAAAATAAGGCTAGTCCGTTATCAACTTGAAAAAGTGGCACCGAGTCGGTGCTTTT
modifications: listed as RNA; modified_base 1: mod_base = OTHER; note = 2'-O-Methyl-cytidine phosphorothioate; modified_base 2: mod_base = OTHER; note = 2'-O-Methyl-uridine phosphorothioate; modified_bas
notes: as for B1
B10: GA086: PCSK9 gRNA for ABE8.8 splice site editing, Human/Cyno (nucleic acid)
guide: B9 guide with C1T, T3C, C10T, A13T, T14G, G15A, T18G
modifications: listed as RNA; modified_base 1: mod_base = OTHER; note = 2'-O-Methyl-uridine phosphorothioate; modified_base 2: mod_base = OTHER; modified_base
notes: as for B1
B11: GA115: ANGPTL3 gRNA; protospacer AACATAGCAAATCTTGATTT (SEQ ID NO: 113) (nucleic acid)
guide: AACATAGCAAATCTTGATTTGTTTTAGAGCTAGAAATAGCAAGTTAAAATAAGGCTAGTCCGTTATCAACTTGAAAAAGTGGCACCGAGTCGGTGCTTTT
modifications: 2'-O-methyl at 1, 2, other sugars and backbone not given here; further chemistry not fully specified
B12: GA085: PCSK9 gRNA for ABE8.8 splice site editing, Human/Cyno (nucleic acid)
guide: GCCTCTTCACCTGCTCCTGAGTTTTAGAGCTAGAAATAGCAAGTTAAAATAAGGCTAGTCCGTTATCAACTTGAAAAAGTGGCACCGAGTCGGTGCTTTT
modifications: listed as RNA; modified_base 1: mod_base = OTHER; note = 2'-O-Methyl-guanosine phosphorothioate; modified_base 2: mod_base = OTHER; note = 2'-O-Methyl-cytidine phosphorothioate; modified_b
notes: as for B1

How the values were obtained:
PCSK9 gene splice site = type: cell-based, human; details: for Editing % at Position 6: Human Primary Hepatocytes, gRNA co-transfected with ABE8.8 mRNA 1:1 by weight
Method: PCSK9 gRNAs were co-transfected with an equivalent amount of in vitro transcribed ABE8.8 mRNA MA002 (1:1 ratio by weight) into primary hepatocytes and processed as described in detailed methods. In one set of experiments, extracted genomic DNA was analyzed for base editing of the target splice site with next-generation sequencing of PCR amplicons generated around the target sites. Samples were prepared using the Nextera XT DNA library preparation kit (Illumina) according to the manufacturer's protocol. Briefly, two rounds of PCR were performed first to amplify the region of interest and second to add DNA sequences required for next generation sequencing and sample identification to the initial product. The final amplicon was sequenced on the Illumina MiSeq instrument according to the manufacturer's protocol.
Similarly, three gRNAs (GA098, GA099, GA100) were synthesized matching the 5′-[…]-3′ (SEQ ID NO: 15) (GA091) human protospacer sequence, as well as four gRNAs (GA067/GA101, GA102, GA103, GA347) matching the 5′-[…]-3′ (SEQ ID NO: 14) (GA067) cynomolgus protospacer sequence, but with more extensive chemical modifications of various kinds (Table 1). GA066 and GA095 contain the same chemical composition and modification pattern, as do GA067 and GA101 with one another. […] Each of the gRNAs described in Table 8, with an equivalent amount of in vitro transcribed ABE8.8 mRNA MA002 (1:1 ratio by weight), were co-transfected into primary human hepatocytes and primary cynomolgus hepatocytes via MessengerMax reagent, using various dilutions to assess for editing activity at different concentrations of test article. Three days after transfection, genomic DNA was harvested from the hepatocytes, and then assessed for base editing of the target splice site with next-generation sequencing.
Modifications and/or truncations to either the spacer or tracr portion of the gRNA was assessed by alteration of the GA066 spacer (5′-[…]-3′ (SEQ ID NO: 13)) (Table 12). […] Each of the gRNAs with an equivalent amount of in vitro transcribed ABE8.8 mRNA (1:1 ratio by weight) were co-transfected into primary human hepatocytes and primary cynomolgus hepatocytes and processed as described in detailed methods. […]

ANGPTL3 gene = test: ANGPTL3 gRNA/SpCas9 editing in primary cynomolgus hepatocytes (Table 3); type: cell-based, cynomolgus monkey
Method: In set of experiments, PCSK9 gRNAs were co-transfected with an equivalent amount (1:1 ratio by weight) of in vitro transcribed commercially available SpCas9 mRNA MS002 purchased from TriLink Biotechnologies into primary human hepatocytes at 2500, 500, or 100 ng/RNA/mL and processed as described in detailed methods. Extracted genomic DNA was analyzed for gene editing at the target site with next-generation sequencing of PCR amplicons generated around the target sites. Samples were prepared using the Nextera XT DNA library preparation kit (Illumina) according to the manufacturer's protocol. Briefly, two rounds of PCR were performed first to amplify the region of interest and second to add DNA sequences required for next generation sequencing and sample identification to the initial product. The final amplicon was sequenced on the Illumina MiSeq instrument according to the manufacturer's protocol. A wide range of editing activities (Table 2) were observed. In a second set of experiments, ANGPTL3 gRNAs were co-transfected with an equivalent amount of in vitro transcribed SpCas9 mRNA (1:1 ratio by weight) into primary human hepatocytes and processed and analyzed similarly (Table 3).
Plating, culturing, and transfection of primary hepatocytes. Primary human liver hepatocytes (PHH) and primary cynomolgus liver hepatocytes (PCH) from BioIVT were cultured per the manufacturer's protocol. Briefly, primary human hepatocytes and primary cyno hepatocytes were obtained as frozen aliquots from BioIVT. Four lots of primary human hepatocytes, each derived from a de-identified individual donor, were used for the experiments: STL (main donor) was used for all experiments, including screening experiments and off-target experiments; HLY, JLP, and TLY were used for off-target experiments. The HFG lot of primary cyno hepatocytes were used for experiments. Following the manufacturer's instructions, cells were thawed and rinsed prior to plating in 24-well plates that had been coated with bovine collagen overnight, with a density of approximate 350,000 cells/well in INVITROGRO hepatocyte medium supplemented with TORPEDO antibiotic mix (BioIVT). The cells were thawed and resuspended in hepatocyte thawing medium followed by centrifugation at 100 g for 10 min at 4° C. The supernatant was discarded, and the pelleted cells resuspended in hepatocyte plating medium. Each vial contains approximately 5 million cells that were used for plating one 24-well plate. Plated cells were allowed to settle and adhere for 4-6 h in a tissue culture incubator at 37° C. under 5% CO2 atmosphere. After incubation, cells were checked for monolayer formation. The incubating media were then replaced with fresh hepatocyte maintenance media (complete INVITROGRO medium obtained from BioIVT, the cell line provider). The cells thus became ready for transfection. Each of the gRNAs were co-transfected with an equivalent amount of in vitro transcribed ABE8.8 mRNA (1:1 ratio by molecular weight) into primary human hepatocytes via MessengerMax reagent (Lipofectamine), using various dilutions to assess for editing activity at different concentrations of test article. MessengerMAX from Thermo Fisher is used for transfection. Solution A: desired amount of guide RNA is mixed with 1:1 wt ratio of mRNA in OptiMEM. Solution B: MessengerMAX in OptiMEM. After mixing solutions A and B, the mixture was incubated at room temperature for 20 min. 60 μL of the incubated solution was added dropwise to each cell wells. For protospacer sequences that were a perfect match to the corresponding cynomolgous monkey PCSK9 or ANGPTL3 gene sequence, each gRNA was also co-transfected with an equivalent amount of ABE8.8 mRNA (1:1 ratio by molecular weight) into primary cynomolgous hepatocytes, and followed the same transfection protocol. The cells were then allowed to remain at 37° C. for 3 days. […]

| Molecule | Human Primary Hepatocytes-splice site editing % 1250 ng/mL (PCSK9 gene splice site) [%] | Human Primary Hepatocytes-splice site editing % 2500 ng/mL (PCSK9 gene splice site) [%] | Human Primary Hepatocytes-splice site editing % 5000 ng/mL (PCSK9 gene splice site) [%] | other results |
| --- | --- | --- | --- | --- |
| B1 | 6.5 | 10.0 | 12.6 |  |
| B2 | 1.8 | 3.1 | 5.5 |  |
| B3 |  |  |  | Editing % at Position 6 (PCSK9 gene splice site; 312.5 ng/mL, rep1): 16.86%; Editing % at Position 6 (PCSK9 gene splice site; 312.5 ng/mL, rep2): 15.78%; Editing % at Position 6 (PCSK9 gene splice site; 625 ng/mL, rep1): 27.12%; Editing % at Position 6 (PCSK9 gene splice site; 625 ng/mL, rep2): 18.67%; Editing % at Position 6 (PCSK9 gene splice site; 1250 ng/mL, rep1): 25.43%; Editing % at Position 6 (PCSK9 gene splice site; 1250 ng/mL, rep2): 27.3%; Editing % at Position 6 (PCSK9 gene splice site; 2500 ng/mL, rep1): 25.58%; Editing % at Position 6 (PCSK9 gene splice site; 2500 ng/mL, rep2): 30.06% |
| B4 | 0.2 | 0.2 | 0.2 |  |
| B5 | 5.4 | 14.1 | 18.1 |  |
| B6 | 4.9 | 7.6 | 8.6 |  |
| B7 | 0.3 | 0.5 | 0.4 |  |
| B8 | 1.6 | 3.9 | 4.9 |  |
| B9 | 5.6 | 9.6 | 9.8 |  |
| B10 | 2.9 | 4.9 | 5.7 |  |
| B11 |  |  |  | Cyno Primary Hepatocyte Editing % 100 ng/mL (ANGPTL3 gene): 12.58%; Cyno Primary Hepatocyte Editing % 500 ng/ml (ANGPTL3 gene): 25.51% |
| B12 | 1.2 | 1.8 | 2.4 |  |
